In the supplement of paper PMC10126150:
± gives the standard deviation of the averaged measurements.

test system: ATP; assay: switch fluorescence ratio, 500 uM ATP over buffer (Cy3 cluster intensity, sum of 5 cycles each) (fold (ratio)); higher = stronger signal-on switching upon ATP binding; sequences stand for … in TCGTCGGCAGCGTCAGATGTGTATAAGAGACAGTTTTTTTTTTTTTTTTTTTTTTTTT…TC; conditions: aptamer strand: ATP DNA aptamer (quencher-CACCTGGGGGAGTATTGCGGAGGAAGG + anchor), 100 nM annealed; ATP concentration: 500 uM
Method in brief: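 After annealing to 100 nM quencher-labelled ATP aptamer, Cy3-labelled switching-strand clusters on a modified Illumina MiSeq flow-cell were imaged in selection buffer. A second image followed after 15 min with 500 uM ATP at 22 °C, and five such buffer/ATP cycles were done, each separated by NaOH stripping and re-annealing. The fluorescence ratio, averaged per switch-domain sequence, is summed target-cycle over summed buffer-cycle Cy3 intensity per cluster, with clusters outside 100-1000 RFU excluded.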
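Further: ATP exposure 15 min at 22 °C before imaging.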

In order of falling switch fluorescence ratio:
1. TACACCTTTC  2.3 ± 0.073
2. CGGCAATGGG  1.77 ± 0.15
3. CGTCATTTAC  1.63 ± 0.074
4. CATTAGCGAT  1.5 ± 0.091
5. GGGCAATGTC  1.39 ± 0.072
6. TCCGGGGTAA  1.37 ± 0.51
7. TCAGAAGTAA  1.317 ± 0.0066
8. CAACCGTTTC  1.27 ± 0.028
9. CTCCTACACC  1.25 ± 0.041
10. CCCGTGGGGA  1.2 ± 0.15
11. GAACGGGACA  1.18 ± 0.065
12. TAGAGCTAC  1.17 ± 0.049
13. CGCAGTAGTG  1.16 ± 0.032
14. TTCCACAGGA  1.15 ± 0.15
15. TGCAGGGGCT  1.15 ± 0.22
16. TCGTACTTAT  1.12 ± 0.18
17. CGTACTCCTT  1.12 ± 0.025
18. ACGTTGGACA  1.12 ± 0.05
19. ATTCACTCGT  1.11 ± 0.13
20. TTTGCTTCCG  1.1 ± 0.084
21. TTGTTTAGGC  1.1 ± 0.027
22. GGAACGGGTG  1.09 ± 0.17
23. CCGCCGGGGG  1.09 ± 0.041
24. ACTCATGGCA  1.09 ± 0.046
25. TAGACCTTAA  1.09 ± 0.029
26. CGGGTAAGTT  1.09 ± 0.2
27. GGGATAGCAC  1.09 ± 0.13
28. CACTGTGACA  1.083 ± 0.0052
29. AAACACGAGC  1.067 ± 0.0061
30. CGCTTTATGA  1.07 ± 0.024
31. GGGGTCTTCC  1.07 ± 0.041
32. ATTGCATAAT  1.06 ± 0.078
33. CATGTGATGG  1.06 ± 0.044
34. GGGGTGACTG  1.05 ± 0.048
35. TTAAATGGTG  1.05 ± 0.072
36. TTAGTGACA  1.042 ± 0.0095
37. AGATATGAAC  1.04 ± 0.044
38. TAAATATTGG  1.04 ± 0.034
39. CTGGGGGCGA  1.04 ± 0.012
40. TCGATTAGGG  1.04 ± 0.017
41. AGTGGGCGCA  1.04 ± 0.042
42. ACTAATTATT  1.03 ± 0.021
43. ACTCGGCTTG  1.03 ± 0.023
44. GCGAACGGTT  1.03 ± 0.021
45. AACGAAAGGG  1.03 ± 0.074
46. TTTACGGTTC  1.03 ± 0.054
47. TAGGCACGCG  1.027 ± 0.01
48. TATATGTAGA  1.03 ± 0.011
49. CGATGGTTGG  1.03 ± 0.07
50. ATGCGTGGTA  1.02 ± 0.041
51. AGGGAATTAC  1.022 ± 0.0036
52. ATTTGGGGTG  1.016 ± 0.0069
53. ACGAGGGGAG  1.02 ± 0.016
54. TAGGTAATAT  1.02 ± 0.036
55. TTAAGTTCGG  1.02 ± 0.013
56. AATGGCATCG  1.02 ± 0.011
57. CCGGGTAGTT  1.02 ± 0.074
58. GGCATAAGTG  1.016 ± 0.0087
59. TGGGGGGCGG  1.02 ± 0.03
60. GTATTCTCCA  1.018 ± 0.0043
61. ACAACCGTTT  1.02 ± 0.027
62. TCTGGCTTTT  1.022 ± 0.0092
63. CGCATAGAAA  1.02 ± 0.045
64. AAGGGTACCT  1.018 ± 0.0077
65. GCTATCTTTT  1.02 ± 0.04
66. GGGTAAAACT  1.0166 ± 0.00025
67. CAGGGGGGAA  1.024 ± 0.0064
68. CGGGGGTTTC  1.02 ± 0.023
69. GTATGGAGGG  1.02 ± 0.029
70. TGTTGGTGGC  1.02 ± 0.071
71. AGCCGTTTGA  1.023 ± 0.0016
72. TTCGCACCGG  1.021 ± 0.0073
73. CAGGGGCTTC  1.02 ± 0.018
74. ACATTAGGCT  1.02 ± 0.046
75. GCAGTGGGTT  1.02 ± 0.074
76. GCGAGTACGA  1.02 ± 0.032
77. TAGACGTTGG  1.02 ± 0.014
78. TTGGTGGAAG  1.02 ± 0.0057
79. TTTGGTGAGG  1.01 ± 0.02
80. CGTGGGGCAG  1.01 ± 0.024
81. TTGAGGGGAG  1.01 ± 0.012
82. TTTTGGGTGA  1.01 ± 0.024
83. GGATCCTGTT  1.01 ± 0.027
84. TAGGTTTCAT  1.01 ± 0.014
85. TTTAATCATC  1.01 ± 0.026
86. TTTGATCTTT  1.01 ± 0.035
87. TGGCAGGTTT  1.015 ± 0.01
88. CGTGTATTCG  1.01 ± 0.031
89. GGGGCTTGGT  1.01 ± 0.034
90. CCAATGGGAA  1.01 ± 0.025
91. CTATTCAGGT  1.01 ± 0.032
92. TGTGTCAGGG  1.01 ± 0.022
93. TGATTTAGGA  1.01 ± 0.036
94. TTTATGTTTG  1.01 ± 0.035
95. GGCTTCGGGA  1.01 ± 0.054
96. TATCGCGGTG  1.005 ± 0.005
97. GGTTGACTCT  1.01 ± 0.029
98. ATTCTTAATG  1.01 ± 0.021
99. TAGATTTGTA  1.01 ± 0.021
100. TTGGACATAT  1.008 ± 0.0039
101. CGGGAGAGAC  1.013 ± 0.0025
102. TCTATTCTCG  1.013 ± 0.0056
103. GGTCCGGTTC  1.01 ± 0.025
104. TTTTTCCCTT  1.01 ± 0.034
105. CGGGGTGCTA  1.007 ± 0.0077
106. CGGGTAAGGG  1.01 ± 0.04
107. TGACATAATT  1.01 ± 0.046
108. GCAAAAGGAG  1 ± 0.059
109. TATTGGTTTT  1 ± 0.011
110. TGCTAACTCG  1 ± 0.018
111. TCGGGCCTGT  1 ± 0.034
112. TAAGTTGTAT  1 ± 0.035
113. GACTAGGGGG  1 ± 0.048
114. CTGTCAGATG  1 ± 0.025
115. AGGTAACTGG  1.001 ± 0.00096
116. ATGATTTTAG  1 ± 0.031
117. TTTATCTTTG  1 ± 0.027
118. TGTGGTGGCA  1 ± 0.058
119. GAGCGTAGTA  1 ± 0.037
120. TAGAATCGCT  1 ± 0.049
121. AGCGGAGAGT  1 ± 0.029
122. AGAGAGGGAA  1 ± 0.025
123. TGGGAAGGTA  0.999 ± 0.029
124. ATTTAATTCT  0.9981 ± 0.0077
125. GGGCGGAGGG  0.998 ± 0.027
126. GACCAAGTCA  0.997 ± 0.026
127. TTTTAGATCG  0.997 ± 0.016
128. CGGGGAGGCA  0.997 ± 0.031
129. AGGGGGTTAA  0.996 ± 0.017
130. GATGGTAGTC  0.994 ± 0.027
131. CATGCCAGAT  0.994 ± 0.028
132. GGGGCGAGG  0.994 ± 0.053
133. AATGGGCTAG  0.993 ± 0.059
134. CTTGGGAGGG  0.992 ± 0.029
135. CAACAACGCG  0.992 ± 0.02
136. GTGTGAAGGT  0.991 ± 0.032
137. TCGGTTAGTG  0.991 ± 0.036
138. GGTGTGCATG  0.99 ± 0.053
139. GTCAAAGGGT  0.99 ± 0.022
140. TGCATGGCTG  0.99 ± 0.01
141. TAAGCGGCGC  0.989 ± 0.084
142. TGGGAGGGAT  0.989 ± 0.021
143. AACTGTTGG  0.9895 ± 0.006
144. GAAGGGGGCA  0.9882 ± 0.001
145. TAAGTAGTAT  0.987 ± 0.017
146. ATCGATGGGA  0.987 ± 0.07
147. GTGGGGGTGC  0.987 ± 0.033
148. ATTTATGGGT  0.987 ± 0.029
149. AGTTTATTTT  0.986 ± 0.034
150. CATGCACCGG  0.986 ± 0.05
151. GCCGTGGGAG  0.986 ± 0.052
152. GGGTCTTGAC  0.9858 ± 0.0045
153. TCAAGTTAGT  0.985 ± 0.026
154. TGCTGGTCGG  0.985 ± 0.035
155. GAGAGCCTTA  0.9853 ± 0.0079
156. GGATGCGTG  0.985 ± 0.059
157. TAAAAGGGGC  0.985 ± 0.098
158. AATATTTAGA  0.9837 ± 0.0059
159. GTATCGTACG  0.984 ± 0.014
160. TAGGAATTTT  0.984 ± 0.016
161. CGATTTGTGT  0.984 ± 0.011
162. AATGGGGATC  0.984 ± 0.062
163. TTTAGTGGGT  0.984 ± 0.026
164. GGTAAGTCTA  0.9832 ± 0.0059
165. TTGACTGTAG  0.982 ± 0.013
166. ATGTCGGGCT  0.982 ± 0.042
167. TTACATCGGA  0.982 ± 0.03
168. ATCGTTAATT  0.981 ± 0.041
169. CCGTTTTGAA  0.981 ± 0.057
170. TTCATCGGGA  0.981 ± 0.055
171. GGTGGGTCGG  0.98 ± 0.036
172. CGAGAGGAAA  0.9804 ± 0.0046
173. GCTTTATGGG  0.98 ± 0.027
174. AATTACCGGT  0.979 ± 0.045
175. TGATTGTATT  0.979 ± 0.015
176. GGGTTTCGGG  0.9779 ± 0.0092
177. TCGTCGCGTA  0.978 ± 0.14
178. GTTATCAGAG  0.977 ± 0.021
179. GGGCCCGATT  0.976 ± 0.037
180. CGCTTCGGGG  0.9735 ± 0.0082
181. TTTATAGGT  0.9713 ± 0.0062
182. ATTCTGTGGT  0.97 ± 0.019
183. CGGTTGATGG  0.969 ± 0.074
184. TAGTAGGCGC  0.968 ± 0.035
185. TTCATCGTTT  0.968 ± 0.011
186. TGACAGTCAG  0.968 ± 0.02
187. TCATCATTCG  0.9668 ± 0.0052
188. GGGTATCGTT  0.965 ± 0.027
189. CGGCGTTCGC  0.964 ± 0.049
190. CGGGGTCGGT  0.963 ± 0.021
191. TAGGGAAAGT  0.9607 ± 0.0022
192. AGGAAGGGGC  0.96 ± 0.018
193. GATGTGCAGA  0.959 ± 0.038
194. CTGTTAGGGA  0.958 ± 0.03
195. CAAAATTGCC  0.954 ± 0.11
196. GGGTTGAATA  0.953 ± 0.056
197. GAGTGTTTGG  0.949 ± 0.034
198. AAATAAATAA  0.944 ± 0.011
199. ACGAATGCGG  0.941 ± 0.042
200. TTGTTACATC  0.941 ± 0.016
